These results are taken from patent US20100183556A1.

This assay deals with B-domain-deleted human coagulation factor VIII (human) (UniProt P00451). In words: cell-based or functional assay.
Sequence of UniProt P00451 (P00451 other isoform, or with tags, fused parts or gaps limits assumed): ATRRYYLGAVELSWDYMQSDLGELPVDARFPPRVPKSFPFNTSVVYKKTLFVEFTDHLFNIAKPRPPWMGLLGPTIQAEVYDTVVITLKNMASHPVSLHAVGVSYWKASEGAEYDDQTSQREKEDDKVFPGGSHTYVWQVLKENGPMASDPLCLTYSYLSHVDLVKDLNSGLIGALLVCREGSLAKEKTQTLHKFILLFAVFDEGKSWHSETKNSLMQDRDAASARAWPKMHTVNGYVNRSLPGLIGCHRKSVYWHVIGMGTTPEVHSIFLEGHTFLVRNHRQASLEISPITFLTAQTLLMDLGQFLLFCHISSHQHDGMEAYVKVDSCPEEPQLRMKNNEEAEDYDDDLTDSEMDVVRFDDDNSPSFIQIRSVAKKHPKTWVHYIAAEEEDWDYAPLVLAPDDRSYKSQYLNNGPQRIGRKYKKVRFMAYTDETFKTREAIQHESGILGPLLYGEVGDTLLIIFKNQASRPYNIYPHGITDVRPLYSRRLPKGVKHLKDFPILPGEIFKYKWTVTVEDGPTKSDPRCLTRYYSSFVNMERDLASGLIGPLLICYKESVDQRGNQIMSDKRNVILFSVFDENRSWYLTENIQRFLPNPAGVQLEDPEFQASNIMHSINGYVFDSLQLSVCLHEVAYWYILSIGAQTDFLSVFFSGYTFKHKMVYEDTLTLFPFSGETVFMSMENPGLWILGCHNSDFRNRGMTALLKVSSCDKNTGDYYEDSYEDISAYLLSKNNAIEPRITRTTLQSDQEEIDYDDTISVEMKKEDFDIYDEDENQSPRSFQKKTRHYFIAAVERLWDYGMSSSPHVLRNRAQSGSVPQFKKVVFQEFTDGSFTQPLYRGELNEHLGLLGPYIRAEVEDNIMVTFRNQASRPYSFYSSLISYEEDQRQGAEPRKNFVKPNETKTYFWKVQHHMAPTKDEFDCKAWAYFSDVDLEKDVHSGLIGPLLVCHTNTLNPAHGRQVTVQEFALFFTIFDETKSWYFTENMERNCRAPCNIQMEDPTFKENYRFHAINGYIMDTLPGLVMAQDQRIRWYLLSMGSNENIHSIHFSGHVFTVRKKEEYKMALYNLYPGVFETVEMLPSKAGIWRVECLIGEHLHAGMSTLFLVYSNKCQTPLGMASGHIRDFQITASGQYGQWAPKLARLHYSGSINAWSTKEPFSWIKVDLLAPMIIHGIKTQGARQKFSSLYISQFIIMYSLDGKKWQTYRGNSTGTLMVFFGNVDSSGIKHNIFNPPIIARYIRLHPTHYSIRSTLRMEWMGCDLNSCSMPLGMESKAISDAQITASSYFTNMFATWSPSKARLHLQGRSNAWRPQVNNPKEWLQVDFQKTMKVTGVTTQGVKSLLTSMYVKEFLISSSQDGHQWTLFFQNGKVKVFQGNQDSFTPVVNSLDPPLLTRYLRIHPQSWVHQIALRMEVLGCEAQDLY

As for “full length von Willebrand factor (vWF) (from UniProt P04275 23-2813)”, the FVIII activity (chromogenic assay) in supernatant of 293T cells co-transfected with pREP7-BDD.FVIII and pRex52 was 199; the FVIII activity in supernatant of K562 cells co-transduced with vBDD.FVIII and vEx52 at a MOI of 1.5 turned out to be 28.3.

Take “mutant von Willebrand factor vWF23 (exons 24-46 of vWF deleted) (from UniProt P04275 23-2813)”: the FVIII activity (chromogenic assay) in supernatant of 293T cells co-transfected with pREP7-BDD.FVIII and pRex23 came to 28.9; the FVIII activity in supernatant of K562 cells co-transduced with vBDD.FVIII and vEx23 at a MOI of 1.5 was found to be 33.9.

“mutant von Willebrand factor vWF28 (exons 29-46 of vWF deleted) (from UniProt P04275 23-2813)” yielded an FVIII activity (chromogenic assay) in supernatant of 293T cells co-transfected with pREP7-BDD.FVIII and pRex28 of 107; an FVIII activity in supernatant of K562 cells co-transduced with vBDD.FVIII and vEx28 at a MOI of 1.5 of 53.3.
